Data on one molecule can be found in patent CN112409479A (INST FOR VIRAL DISEASE CONTROL AND PREVENTION CHINESE …, dated 2021).

This assay has as its target T1, 新型冠状病毒S1蛋白 (纯化) (SARS-CoV-2, UniProt P0DTC2 14-685).
T1 construct: domain: S1
The experiment in a line: ELISA, purified IgG on coated S1 protein.

B1: 人源抗新冠病毒中和性抗体nCoV-121 全抗体IgG (antibody)
light: NFMLTQPHSVSESPGKTVTISCTRSSGSIASNYVQWYQQRPGSSPTTVIYEDNQRPSGVPDRFSGSIDSSSNSASLTISGLKTEDEADYYCQSYDSSNQWVFGGGTKLTVLGQPKAAPSVTLGQPKAAPSVTLFPPSSEELQANKATLVCLISDFYPGAVTVAWKADSSPVKAGVETTTPSKQSNNKYAASSYLSLTPEQWKSHRSYSCQVTHEGSTVEKTVAPTECS
heavy: not shown
As for B1, the “dilution still ELISA-positive” value is ≥ 64000 fold dilution from 0.2mg/ml.
